The record followed here is patent US20130052195A1 (EMERGENT PRODUCT DEVELOPMENT SEATTLE, published 2013).

The target of the experiment is T1, murine IL6 (murine, UniProt P08505 25-211).
T1 construct: also called mIL-6; mIL6
T1 sequence (looked up): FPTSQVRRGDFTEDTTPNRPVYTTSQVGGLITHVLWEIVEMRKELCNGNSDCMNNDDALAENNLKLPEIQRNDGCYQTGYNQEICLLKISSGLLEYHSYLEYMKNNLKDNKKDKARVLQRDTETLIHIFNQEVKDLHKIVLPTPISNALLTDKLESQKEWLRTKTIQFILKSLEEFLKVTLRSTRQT
Kind of experiment: not described (statement in Example 1).

B1: A2-XT6 (multi-target binding molecule with the TNFR extracellular domain (ECD) at the N-terminal end and the anti-hyperIL6 scFv at the carboxy-terminal end) (other)
chain: LPAQVAFTPYAPEPGSTCRLREYYDQTAQMCCSKCSPGQHAKVFCTKTSDTVCDSCEDSTYTQLWNWVPECLSCGSRCSSDQVETQACTREQNRICTCRPGWYCALSKQEGCRLCAPLRKCRPGFGVARPGTETSDVVCKPCAPGTFSNTTSSTDICRPHQICNVVAIPGNASMDAVCTSTSPTRSMAPGAVHLPQPVSTRSQHTQPTPEPSTAPSTSFLLPMGPSPPAEGSTGDTGEPKSSDKTHTCPPCPAPEAAGAPSVFLFPPKPKDTLMISRTPEVTCVVVDVSHEDPEVKFNWYVDGVEVHNAKTKPREEQYNSTYRVVSVLTVLHQDWLNGKAYACAVSNKALPAPIEKTISKAKGQPREPQVYTLPPSRDELTKNQVSLTCLVKGFYPSDIAVEWESNGQPENNYKTTPPVLDSDGSFFLYSKLTVDKSRWQQGNVFSCSVMHEALHNHYTQKSLSLSPGQRHNNSSLNTRTQKARHSPNSEVQLLESGGGLVQPGGSLRLSCAASGFTFSFYQMHWVRQAPGKGLEWVSGIYPSGGYTKYADSVKGRFTISRDNSKNTLYLQMNSLRAEDTAVYYCARDLGYGSSWYYFDYWGQGTLVTVSSGGGGSGGGGSGGGGSQSALTQPASVSGSPGQSITISCSGTDSDVGGYNHVSWYQQHPGKAPKLIIYDVDHRPSGISNRFSGSKSGNTASLTISGLQAEDEADYYCSSYRSGSTYVFGTGTKVTVL
notes: also called Zeu080a; TRU(XT6)-1002
Turning to B1, the binding result is on record as “no binding”.
